According to doi:10.1101/2022.11.07.515396, “Functional and structural asymmetry suggest a unifying principle for catalysis in integral membrane-bound pyrophosphatases” (bioRxiv, 2022):

How the values were obtained:
[1] = biological target: the molecule itself; assay: crystal structure; TmPPase in OGNG with 0.4 mM K4PPi, vapour diffusion, 24-26% v/v PEG 400, 50-60 mM Tris-HCl pH 8.5, 2-3 mM MgCl2, 175 mM KCl, 2 mM DTT, 20 °C; time-resolved cryo-trapping after soaking in Na+ trigger solution (0-3600 seconds); molecular replacement with PDB 4AV3
[2] = biological target: the molecule itself; assay: crystal structure; PaPPase in DM with 2 mM IDP, vapour diffusion, 30-33% v/v PEG 400, 0.1 M MES pH 6.5, 0.05 M LiSO4, 0.05 M NaCl, 20 °C; space group P21; eight datasets combined; molecular replacement with PDB 5LZQ

| Protein | stoichiometry N [1] | stoichiometry N [2] |
| --- | --- | --- |
| K+-dependent Na+-pumping membrane-bound pyrophosphatase from Thermotoga maritima (TmPPase), wild type (enzyme, UniProt Q9S5X0 1-726, looked up, also called K+-dependent Na+-PPase; TmPPase:Mg2; source: S. cerevisiae BJ1991, purified (hot-solve, nickel-NTA, in OGNG)) MYVAALFFLIPLVALGFAAANFAAVVRKPEGTERMKEISSYIRSGADSFLAHETKAIFKVAIVIAILLMIFTTWQTGVAFLLGAVMSASAGIVGMKMATRANVRVAEAARTTKKIGPALKVAYQGGSVMGLSVGGFALLGLVLVYLIFGKWMGQVDNLNIYTNWLGINFVPFAMTVSGYALGCSIIAMFDRVGGGVYTKAADMAADLVGKTELNLPEDDPRNPATIADNVGDNVGDVAGLGADLLESFVGAIVSSIILASYMFPIYVQKIGENLVHQVPKETIQALISYPIFFALVGLGCSMLGILYVIVKKPSDNPQRELNISLWTSALLTVVLTAFLTYFYLKDLQGLDVVGFRFGAISPWFSAIIGIFSGILIGFWAEYYTSYRYKPTQFLSKSSIEGTGMVISNGLSLGMKSVFPPTLTLVLGILFADYFAGLYGVAIAALGMLSFVATSVSVDSYGPIADNAGGISEMCELDPEVRKITDHLDAVGNTTAAIGKGFAIGSAIFAALSLFASYMFSQISPSDIGKPPSLVLLLNMLDARVIAGALLGAAITYYFSGYLISAVTKAAMKMVDEIRRQAREIPGLLEGKAKPDYNRCIEITSDNALKQMGYPAFIAILTPLVTGFLLGAEFVGGVLIGTVLSGAMLAILTANSGGAWDNAKKYLEAGNLEGYGKGSEPHKALVIGDTVGDPLKDTVGPSLDILIKIMSVVSVIAVSIFKHVHLF | 2 |  |
| K+-independent H+-pumping membrane-bound pyrophosphatase from Pyrobaculum aerophilum (PaPPase), wild type (enzyme, UniProt Q8ZWI8 1-721, looked up, also called PaPPase:Mg5IDP; K+-independent H+-PPase; source: S. cerevisiae BJ1991, purified (hot-solve in DDM, nickel-NTA, protein in DM for crystals)) MNMISYALLGVILGISGVIYAVYLAVWVLRQDPGNEKMRFISQAIATGARAYLFRQYRTLAVLLVILAVLILVAIDMPRRTFGLTALAFIVGALGSMLAGYLGMYVTTRSASRVAQAAATGGMGKALLVSWRAGAVMGLSLASIALLLISGFYLVFRSVLPDDWAVPLVALGFGASLVTLFMRVGGGIYTKAADLGADLVGKVEAGIPEDDPRNPGVIADNVGDNVGDVAGMAADVYESYIVTVTAAIFLAAILGLPTQFIEAIILFAALALVATFAGVNLLKTTGVKHPLSSISLAIYATIGLSVVLFFIGAFTLGLDSTKALALAATTSLGAVIAPLIVKITDYYTSYNYGPVRKIAEQAKISPATVIITGYGVGLMSAIPVIAVIVAVLGISYMIGYYTVPVSGFGELSKYLAGIFGTAMASVGLLVVAGIIITADSYGPVSDNAGGVVEMAGLPDEVREITDVLDSVGNTTKATTKGYAIASAALAALVLFIALIFEIVYSASKILGKGIVDMISESLSGLQLINANVLIGAFLGVALVYFFSSRTLEAVGRTAMEIVEEIRRQFREKPGILEWKEQPDYARVVDIATRRALGEFLIPGLAAIVLPLITGLLLGWNALAGLIMGAIVAGVPRALLMANAGGAWDNAKKYIEIQGLKKTEMHKAAVIGDTVGDPMKDTVGPSLNPLIKVLNTLSVVFTYVIVSTNIALGIWPSGLLPF |  | 2 |
